Measurements: IntAct's records for PubMed 20371544

B1: Muscle, skeletal receptor tyrosine-protein kinase (Mus musculus), Q61006 (parent)
chain: MRELVNIPLLQMLTLVAFSGTEKLPKAPVITTPLETVDALVEEVATFMCAVESYPQPEISWTRNKILIKLFDTRYSIRENGQLLTILSVEDSDDGIYCCIANNGVGGAVESCGALQVKMKPKITRPPINVKIIEGLKAVLPCTTMGNPKPSVSWIKGDNALRENSRIAVLESGSLRIHNVQKEDAGQYRCVAKNSLGTAYSKLVKLEVEVFARILRAPESHNVTFGSFVTLRCTAIGIPVPTISWIENGNAVSSGSIQESVKDRVIDSRLQLFITKPGLYTCIATNKHGEKFSTAKAAATVSIAEWSKSQKDSQGYCAQYRGEVCDAVLAKDALVFFNTSYRDPEDAQELLIHTAWNELKAVSPLCRPAAEALLCNHLFQECSPGVVPTPMPICREYCLAVKELFCAKEWQAMEGKAHRGLYRSGMHLLPVPECSKLPSMHRDPTACTRLPYLDYKKENITTFPSITSSRPSADIPNLPASTSSFAVSPAYSMTVIISIVSSFALFALLTIATLYCCRRRKEWKNKKRESTAVTLTTLPSELLLDRLHPNPMYQRMPLLLNPKLLSLEYPRNNIEYVRDIGEGAFGRVFQARAPGLLPYEPFTMVAVKMLKEEASADMQADFQREAALMAEFDNPNIVKLLGVCAVGKPMCLLFEYMAYGDLNEFLRSMSPHTVCSLSHSDLSTRARVSSPGPPPLSCAEQLCIARQVAAGMAYLSERKFVHRDLATRNCLVGETMVVKIADFGLSRNIYSADYYKADGNDAIPIRWMPPESIFYNRYTTESDVWAYGVVLWEIFSYGLQPYYGMAHEEVIYYVRDGNILACPENCPLELYNLMRLCWSKLPADRPSFCSIHRILQRMCERAEGTVGV
partner: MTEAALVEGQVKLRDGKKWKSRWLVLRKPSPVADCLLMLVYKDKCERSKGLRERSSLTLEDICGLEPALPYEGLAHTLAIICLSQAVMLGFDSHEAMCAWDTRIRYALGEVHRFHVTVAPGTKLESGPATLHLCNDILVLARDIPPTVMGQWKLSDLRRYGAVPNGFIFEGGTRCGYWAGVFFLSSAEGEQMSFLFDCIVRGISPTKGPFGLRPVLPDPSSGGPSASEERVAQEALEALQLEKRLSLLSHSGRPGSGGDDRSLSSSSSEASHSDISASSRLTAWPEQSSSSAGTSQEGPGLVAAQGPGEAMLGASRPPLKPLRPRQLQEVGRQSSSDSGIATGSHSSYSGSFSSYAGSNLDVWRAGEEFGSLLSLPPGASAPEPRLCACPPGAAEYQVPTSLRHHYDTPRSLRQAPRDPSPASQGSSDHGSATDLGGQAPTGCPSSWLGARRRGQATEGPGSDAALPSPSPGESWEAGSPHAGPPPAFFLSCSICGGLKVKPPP

Variants of: B1
Conditions: with dok7_mouse Dok7, Q18PE0

Variant	effect of a mutation on the interaction
A726V	disrupting interaction
M604I	decreasing interaction
